Biological target: the molecule itself
Experiment: SEC-MALS; SEC-MALLS, three-detector method; Superose 6 column in 20 mM HEPES pH 7.0, 100 mM NaCl, 5% glycerol, 0.0102% DMNPG; 30 ul of MsGabP at 3 mg/ml injected; protein-detergent complex

B1: γ-aminobutyric acid (GABA) permease GabP from Mycobacterium smegmatis MC^2 155 (natural protein, UniProt A0R5H8 1-473, looked up)
chain: MLESRSDLSSSDEPRSGLARSLKTRHMTMIAIGGAIGAGLFVGSGAVIKTAGPAAIVSYVVAGALVLCTLRMLGEMVVAKPRTGAFADYARIGIGPWAGFTLGWLYWYYYVIIIAVEAVAGAQILAVWVGLPLWLMAMLLMAALTLTNLISVRWFGEFEFWFSGIKVAAIVSFIVVGLLWVFGVWPGDTNGLTNLVAHGGFAPNGFGSIFGAVVVVIFAFGGAEIVTIAAAESAEPAKSVARATTGVIWRIILFYVGSIFLVVCILPWNDASVLSSPYVAALEKLQIPGAGLIMNIVILTAVLSVLNSSIYTSSRMLRVLASHGDAPQWLVRTNTRGVPTRAILASTVVGWVSVVLAYIAPDSLFLFLVNSCGVVAIFMYVMIGVSELRVRRAIEREDPAKLTLKMWFFPYLPIAVIACFVLVLVAMLFDADQRVQLLASVVSLAVVLLAYALRKRHGQVPATDTKQAARTDE
notes: GABA permease GabP, Mycobacterium smegmatis MC^2 155, gene msmeg_6196, amplified from genomic DNA and cloned NheI/SbfI into pL33 (based on pTTQ18); predicted molecular mass 50.7 kDa; pL33 encodes a C-terminal His tag preceded by an HRV-3C protease site; the tag was cleaved on the column, so residues of the cleavage site and of the cloning sites may remain; also called MsGabP; gene product of …
stoichiometry N: 2

Reference: article PMC7847548, “Functional Characterization of the γ-Aminobutyric Acid Transporter from Mycobacterium smegmatis MC^2 155 Reveals Sodium-Driven GABA Transport” (Journal of Bacteriology, 2020)
